Assay results reported in PMC6791878, “Evaluation of integrin αvβ6 cystine knot PET tracers to detect cancer and idiopathic pulmonary fibrosis” (Nature Communications, 2019).
Where “and” joins values, the source holds several entries; their conditions need not be identical. Equal entries are not always repeated. Where two headings read alike, the source gives them in different places.

Legend:
[1] = Static small animal PET, integrin αvβ6-positive tumor model; format: in vivo, mouse; conditions: female, athymic nude (Nu/Nu), mouse, in vivo, iv, 100 uCi, total radioactivity, PET, 1 h p.i., average ± SD, n = 3
Excerpt: (§1) Eight planes were acquired in the coronal section.
(§2) Supplementary Figure 5. [18F]FP-R01-MG-F2 Static PET Imaging. (A) Representative PET images of nu/nu mice bearing in integrin αvβ6-positive A431 xenografts (left) and integrin αvβ6-negative 293 xenograft (right) models following injection of […] [18F]FP-R01-MG-F2. Location of tumor and kidneys are indicated by the letters T and K.

[2] = test system: integrin αvβ6-positive A431 xenografts; test: as above; format: in vivo, mouse
Excerpt: as §1, §2

[3] = test system: pancreatic, cervical and lung cancer; conditions: for ROI uptake Bl (bladder) / ROI uptake Bn (osteogenic cells) / ROI uptake Br (brain) / ROI uptake Brs (breast) / ROI uptake HC (heart contents) / ROI uptake HW (heart wall) / ROI uptake LLI (lower large intestine) / ROI uptake Ln (lung) / ROI uptake Lv (liver) / ROI uptake Ms (muscle) / ROI uptake Pn (pancreas) / ROI uptake Pt (pituitary gland) / ROI uptake RM (red marrow) / ROI uptake SI (small intestine) / ROI uptake Sk (skin) / ROI uptake Sp (spleen) / ROI uptake St (stomach) / ROI uptake TB (total body) / ROI uptake Tm (thymus) / ROI uptake Tr (thyroid) / ROI uptake ULI (upper large intestine): one patient, Fig 4C
Protocol: (§3) The administered dose was 55.5–96.2MBq (1.5–2.6 mCi). The scan (6 bed positions, 2 min bed^−1) covered an area that included the top of the skull to the middle of the femur. OSEM was applied for reconstruction. […] The CT scan (140 kV, 35 mA, pitch of 1:1, layer of 5 mm thickness; layer spacing of 3 mm, 512*512 matrix, field of view of 70 cm) also covered the top of the skull to the middle of the femur. […] Immediately upon completion of the first scan, the second whole-body static PET data was acquired. Sequentially, multiple whole-body static PET scans were acquired, one by one, from 0 to 75 min.
(§4) Upon co-registration of the PET and CT images, the CT images were used to determine regions of interest for the organs or tissues reported in the manuscript. These ROIs were applied to the PET images of the brain, pituitary gland, breast, lower and upper large intestine, small intestine, stomach, pancreas, heart wall, liver, lung, muscle, red marrow, bone, skin, and thyroid gland. For high uptake organs such as the kidneys, bladder and for the whole body, threshold-based segmentation of PET images were used to determine a close-fitting ROI around the entire organ or whole body. In order to determine accuracy, these PET-derived ROIs were compared to the CT overlay for a close match.

[4] = test system: integrin αvβ6-positive A431 xenografts; test: Static small animal PET, integrin αvβ6-positive tumor model; format: in vivo, mouse; conditions: microPET 1 hr, individual mice, listed as Ro1-MG NODAGA Ga-68
clinical = conditions: human, iv, total radioactivity
Protocol: as §3, §4

[5] = microPET 1 hr, individual mice, listed as Ro1-MG NODAGA Ga-68

## CC[C@H](C)[C@@H]1NC(=O)[C@@H](NC(=O)CNC(=O)CCC(C(=O)O)N2CCN(CC(=O)O)CCN(CC(=O)O)CC2)CSSC[C@@H]2NC(=O)[C@H](C)NC(=O)CNC(=O)[C@@H]3CCCN3C(=O)[C@@H]3CSSC[C@@H](C(=O)NCC(N)=O)NC(=O)[C@H](Cc4ccc(O)cc4)NC(=O)CNC(=O)[C@H](CC(N)=O)NC(=O)CNC(=O)[C@H](CCCNC(=N)N)NC(=O)[C@H](CSSC[C@H](NC(=O)[C@H](CCCNC(=N)N)NC(=O)[C@H](Cc4ccccc4)NC(=O)[C@H](CC(C)C)NC(=O)[C@H](CC(C)C)NC(=O)[C@H]([C@@H](C)O)NC(=O)CNC(=O)[C@H](CC(C)C)NC(=O)[C@H](CC(=O)O)NC(=O)[C@H]([C@@H](C)O)NC(=O)[C@H](CCCNC(=N)N)NC(=O)CNC(=O)[C@H](CC(N)=O)NC(=O)[C@H](CC(C)C)NC1=O)C(=O)N[C@@H](CCCNC(=N)N)C(=O)N[C@@H](CCCNC(=N)N)C(=O)N[C@@H](CC(=O)O)C(=O)N[C@@H](CO)C(=O)N[C@@H](CC(=O)O)C(=O)N3)NC(=O)[C@H]([C@@H](C)CC)NC2=O (stereo partly drawn) [[^68Ga]NODAGA-R01-MG, metal not drawn]
[1]; αvβ6 (+), read-out: Tumor
  tissue uptake at 1 h: 2.78 ± 0.3 %ID/g
[1]; read-out: Kidney
  tissue uptake at 1 h: 30.1 ± 5.51 %ID/g
[1]; read-out: Liver
  tissue uptake at 1 h: 1.2 ± 0.35 %ID/g
[1]; read-out: Muscle
  tissue uptake at 1 h: 0.589 ± 0.124 %ID/g
[1]; read-out: T:M Ratio (tumor-to-muscle)
  tissue to tissue ratio at 1 h: 4.86 ± 1.04
[2]; PET, 1 h p.i., average ± SD, n = 3
  Muscle: 0.6 ± 0.1 %ID g^−1
[2]; [5]
  Kidney: 34.6175 and 26.042 and 24.5731 and 34.9763
  Muscle: 0.5495 and 0.6119 and 0.4496 and 0.7461
[3]; 9 min p.i.
  ROI uptake Bl (bladder): 1.885
  ROI uptake Bn (osteogenic cells): 0.4959
  ROI uptake Br (brain): 0.05775
  ROI uptake Brs (breast): 0.428
  ROI uptake HC (heart contents): 1.158
  ROI uptake HW (heart wall): 0.7507
  ROI uptake LLI (lower large intestine): 1.4
  ROI uptake Ln (lung): 0.3091
  ROI uptake Lv (liver): 0.8628
  ROI uptake Ms (muscle): 0.6964
  ROI uptake Pn (pancreas): 1.576
  ROI uptake Pt (pituitary gland): 2.269
  ROI uptake RM (red marrow): 0.2412
  ROI uptake SI (small intestine): 6.974
  ROI uptake Sk (skin): 0.09851
  ROI uptake Sp (spleen): 0.7065
  ROI uptake St (stomach): 2.524
  ROI uptake TB (total body): 0.6998
  ROI uptake Tm (thymus): 0.7337
  ROI uptake Tr (thyroid): 1.94
  ROI uptake ULI (upper large intestine): 1.923
[3]; 22 min p.i.
  ROI uptake Bl (bladder): 6.4
  ROI uptake Bn (osteogenic cells): 0.4058
  ROI uptake Br (brain): 0.03902
  ROI uptake Brs (breast): 0.5151
  ROI uptake HC (heart contents): 0.7844
  ROI uptake HW (heart wall): 0.4761
  ROI uptake LLI (lower large intestine): 1.495
  ROI uptake Ln (lung): 0.3044
  ROI uptake Lv (liver): 0.7375
  ROI uptake Ms (muscle): 0.6868
  ROI uptake Pn (pancreas): 1.214
  ROI uptake Pt (pituitary gland): 1.986
  ROI uptake RM (red marrow): 0.1015
  ROI uptake SI (small intestine): 7.153
  ROI uptake Sk (skin): 0.09365
  ROI uptake Sp (spleen): 0.5971
  ROI uptake St (stomach): 2.337
  ROI uptake TB (total body): 0.6751
  ROI uptake Tm (thymus): 0.7375
  ROI uptake Tr (thyroid): 0.7922
  ROI uptake ULI (upper large intestine): 1.432
[3]; 36 min p.i.
  ROI uptake Bl (bladder): 8.426
  ROI uptake Bn (osteogenic cells): 0.4395
  ROI uptake Br (brain): 0.03531
  ROI uptake Brs (breast): 0.6278
  ROI uptake HC (heart contents): 0.722
  ROI uptake HW (heart wall): 0.4798
  ROI uptake LLI (lower large intestine): 1.238
  ROI uptake Ln (lung): 0.3094
  ROI uptake Lv (liver): 0.6906
  ROI uptake Ms (muscle): 0.7579
  ROI uptake Pn (pancreas): 1.296
  ROI uptake Pt (pituitary gland): 2.22
  ROI uptake RM (red marrow): 0.2108
  ROI uptake SI (small intestine): 6.296
  ROI uptake Sk (skin): 0.08072
  ROI uptake Sp (spleen): 0.426
  ROI uptake St (stomach): 2.242
  ROI uptake TB (total body): 0.6996
  ROI uptake Tm (thymus): 0.6323
  ROI uptake Tr (thyroid): 0.7534
  ROI uptake ULI (upper large intestine): 1.834
[3]; 49 min p.i.
  ROI uptake Bl (bladder): 9.366
  ROI uptake Bn (osteogenic cells): 0.4088
  ROI uptake Br (brain): 0.04004
  ROI uptake Brs (breast): 0.5978
  ROI uptake HC (heart contents): 0.5978
  ROI uptake HW (heart wall): 0.3526
  ROI uptake LLI (lower large intestine): 1.426
  ROI uptake Ln (lung): 0.3066
  ROI uptake Lv (liver): 0.6029
  ROI uptake Ms (muscle): 0.7154
  ROI uptake Pn (pancreas): 0.9657
  ROI uptake Pt (pituitary gland): 2.212
  ROI uptake RM (red marrow): 0.1942
  ROI uptake SI (small intestine): 6.546
  ROI uptake Sk (skin): 0.07665
  ROI uptake Sp (spleen): 0.373
  ROI uptake St (stomach): 2.34
  ROI uptake TB (total body): 0.6949
  ROI uptake Tm (thymus): 0.5876
  ROI uptake Tr (thyroid): 0.5416
  ROI uptake ULI (upper large intestine): 1.661
[3]; 61 min p.i.
  ROI uptake Bl (bladder): 9.011
  ROI uptake Bn (osteogenic cells): 0.8028
  ROI uptake Br (brain): 0.04398
  ROI uptake Brs (breast): 0.7155
  ROI uptake HC (heart contents): 0.5817
  ROI uptake HW (heart wall): 0.3897
  ROI uptake LLI (lower large intestine): 1.338
  ROI uptake Ln (lung): 0.3258
  ROI uptake Lv (liver): 0.6399
  ROI uptake Ms (muscle): 0.9889
  ROI uptake Pn (pancreas): 1.129
  ROI uptake Pt (pituitary gland): 2.048
  ROI uptake RM (red marrow): 0.07562
  ROI uptake SI (small intestine): 6.597
  ROI uptake Sk (skin): 0.1047
  ROI uptake Sp (spleen): 0.4654
  ROI uptake St (stomach): 2.513
  ROI uptake TB (total body): 0.5643
  ROI uptake Tm (thymus): 0.5119
  ROI uptake Tr (thyroid): 0.4479
  ROI uptake ULI (upper large intestine): 1.478
[3]; Average of patients, 29-60 min
  Bl, PET uptake, Average: 25.3728
  Bn, PET uptake, Average: 0.4809
  Br, PET uptake, Average: 0.09236
  Brs, PET uptake, Average: 0.4271
  CA, PET uptake, Average: 4.033
  HC, PET uptake, Average: 0.8404
  HW, PET uptake, Average: 0.6923
  LLI, PET uptake, Average: 1.574
  Ln, PET uptake, Average: 0.4315
  Lv, PET uptake, Average: 0.7253
  Ms, PET uptake, Average: 0.5597
  Pn, PET uptake, Average: 1.617
  Pt, PET uptake, Average: 3.247
  RM, PET uptake, Average: 0.2168
  SI, PET uptake, Average: 7.061
  Sk, PET uptake, Average: 0.1123
  Sp, PET uptake, Average: 0.4371
  St, PET uptake, Average: 8.975
  TB, PET uptake, Average: 0.841
  Tm, PET uptake, Average: 0.6358
  Tr, PET uptake, Average: 1.023
  ULI, PET uptake, Average: 1.719
[3]; ~2 mCi i.v., ~1 h p.i., lasted about an hour, disappeared without treatment
  adverse reactions: One patient reported nausea and vertigo
[4]; source data of Table 3
  Tumor avb6(+): 3.142 and 2.463 and 2.614 and 2.906
[4]
  Liver: 0.7389 and 1.216 and 1.257 and 1.6013
clinical; both, kidney, average SUVmean, ~1 h p.i., cancer patients
  SUV: 19.9 ± 2.23 SUV
clinical; both, normal pancreas, SUVmean, n = 5, ± S.D.
  SUV: 1.79 ± 0.47 SUV
clinical; both, pancreatic tumour, average SUVmean, pancreatic cancer, pancreatic cancer patients
  SUV: 4.2 ± 0.1 SUV
clinical; both, small intestines, average SUVmean, cancer patients
  SUV: 7.06 ± 2.74 SUV
clinical; both, stomach, average SUVmean, cancer patients
  SUV: 8.87 ± 6.52 SUV
clinical; head of pancreas, SUVmean, one pancreatic cancer patient (Fig 4d)
  SUV: ~3.1 SUV
clinical; lung tumor, SUVmean, patient, squamous cell carcinoma of the lung
  SUV: 2.2 SUV
clinical; tail of pancreas, SUVmean, one pancreatic cancer patient (Fig 4d)
  SUV: ~4.4 SUV
clinical; tumor in tail of pancreas, 2.2 mCi, SUVmean, patient, ~50 minutes p.i.
  SUV: 4.3 SUV
